Experimental data as given in PMC10889842.

Target: StBIN2 (Brassinolide insensitive 2 of potato), fused to nLUC (Solanum tuberosum (potato))
Test: split reporter (BiFC, NanoBiT); luciferase complementation in infiltrated tobacco leaves; LUC enzyme activity detected with a dual luciferase reporter assay kit (Vazyme); three biological repeats

For “StCCJ9 (a homolog of peroxidase AtPER12), fused to cLUC (enzyme)”, the LUC enzyme activity, fold over the negative control was 5 fold.
With “StSnRK2.2, fused to cLUC (natural protein)” the LUC enzyme activity, fold over the negative control was greater than 5 fold.
